Patent US10822618B2, “Method of using a transgenic mouse with alpha-one antitrypsin (ATT) deficiency to screen compounds” (University of Massachusetts, priority 2016, dated 2020)

B1: AAT 1-4: murine α-1-antitrypsin protein corresponding to one of the Serpina1 genes (A-E) (protein, UniProt Q00897 25-413, looked up)
Alpha-1-antitrypsin 1-4: EDVQETDTSQKDQSPASHEIATNLGDFALRLYRELVHQSNTSNIFFSPVSIATAFAMLSLGSKGDTHTQILEGLQFNLTQTSEADIHKSFQHLLQTLNRPDSELQLSTGNGLFVNNDLKLVEKFLEEAKNHYQAEVFSVNFAESEEAKKVINDFVEKGTQGKIVEAVKKLDQDTVFALANYILFKGKWKQPFDPENTEEAEFHVDESTTVKVPMMTLSGMLDVHHCSMLSSWVLLMDYAGNTTAVFLLPDDGKMQHLEQTLNKELISQFLLNRRRSDAQIHIPRLSISGNYNLKTLMSPLGITRIFNNGADLSGITEENAPLKLSKAVHKAVLTIDETGTEAAAATVLQVATYSMPPIVRFDHPFLFIIFEEHTQSPIFVGKVVDPTHK
B2: AAT 1-1: murine α-1-antitrypsin protein corresponding to one of the Serpina1 genes (A-E) (protein, UniProt P07758 25-413, looked up)
Alpha-1-antitrypsin 1-1: EDVQETDTSQKDQSPASHEIATNLGDFAISLYRELVHQSNTSNIFFSPVSIATAFAMLSLGSKGDTHTQILEGLQFNLTQTSEADIHKSFQHLLQTLNRPDSELQLSTGNGLFVNNDLKLVEKFLEEAKNHYQAEVFSVNFAESEEAKKVINDFVEKGTQGKIAEAVKKLDQDTVFALANYILFKGKWKKPFDPENTEEAEFHVDESTTVKVPMMTLSGMLHVHHCSTLSSWVLLMDYAGNATAVFLLPDDGKMQHLEQTLSKELISKFLLNRRRRLAQIHFPRLSISGEYNLKTLMSPLGITRIFNNGADLSGITEENAPLKLSQAVHKAVLTIDETGTEAAAVTVLQMVPMSMPPILRFDHPFLFIIFEEHTQSPIFLGKVVDPTHK
B3: AAT 1-2: murine α-1-antitrypsin protein corresponding to one of the Serpina1 genes (A-E) (protein, UniProt P22599 25-413, looked up)
Alpha-1-antitrypsin 1-2: EDVQETDTSQKDQSPASHEIATNLGDFAISLYRELVHQSNTSNIFFSPVSIATAFAMLSLGSKGDTHTQILEGLQFNLTQTSEADIHKSFQHLLQTLNRPDSELQLSTGNGLFVNNDLKLVEKFLEEAKNHYQAEVFSVNFAESEEAKKVINDFVEKGTQGKIVEAVKELDQDTVFALANYILFKGKWKKPFDPENTEEAEFHVDKSTTVKVPMMMLSGMLDVHHCSILSSWVLLMDYAGNASAVFLLPEDGKMQHLEQTLNKELISKILLNRRRRLVQIHIPRLSISGDYNLKTLMSPLGITRIFNNGADLSGITEENAPLKLSKAVHKAVLTIDETGTEAAAATVFEAVPMSMPPILRFDHPFLFIIFEEHTQSPIFVGKVVDPTHK
B4: AAT 1-3: murine α-1-antitrypsin protein corresponding to one of the Serpina1 genes (A-E) (protein, UniProt Q00896 25-412, looked up)
Alpha-1-antitrypsin 1-3: EDVQETDTSQKDQSPASHEIATNLGDFAISLYRELVHQSNTSNIFFSPVSIATAFAMLSLGSKGDTHTQILEGLQFNLTQTSEADIHKSFQHLLQTLNRPDSELQLSTGNGLFVNNDLKLVEKFLEEAKNHYQAEVFSVNFAESEEAKKVINDFVEKGTQGKIVEAVKKLDQDTVFALANYILFKGKWKKPFDPENTEEAEFHVDESTTVKVPMMTLSGMLDVHHCSTLSSWVLLMDYAGNATAVFLLPDDGKMQHLEQTLSKELISKFLLNRRRRLAQIHFPRLSISGEYNLKTLMSPLGITRIFNNGADLSGITEENAPLKLSQAVHKAVLTIDETGTEAAAVTVLLAVPYSMPPILRFDHPFLFIIFEEHTQSPLFVGKVVDPTH

Test system: not listed separately
Assay: Respiratory phenotype in response to intratracheal PPE
Format: in vivo, mice
Conditions: intratracheal dose of 0.33 IU; FIG. 7
From the text: FIG. 7. Respiratory phenotype in response to a low and high dose of PPE.

Row | Molecule | respiratory phenotype
1 | PPE: porcine pancreatic elastase | a stronger phenotype is induced

Biological target: T1, neutrophil elastase (Homo sapiens, UniProt P08246)
T1 sequence (P08246 30-267): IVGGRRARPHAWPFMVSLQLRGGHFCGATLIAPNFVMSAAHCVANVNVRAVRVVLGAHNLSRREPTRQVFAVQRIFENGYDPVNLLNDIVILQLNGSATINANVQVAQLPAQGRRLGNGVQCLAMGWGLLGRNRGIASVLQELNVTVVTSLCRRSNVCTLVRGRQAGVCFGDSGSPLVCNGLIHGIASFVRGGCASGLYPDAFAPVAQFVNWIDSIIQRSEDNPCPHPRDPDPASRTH
Assay: not given
Conditions: murine AAT protein, C57BL/6J; cited from earlier work

Row | Molecule | inhibition of neutrophil elastase
2 | B1 | do not
3 | B2 | inhibit
4 | B3 | inhibit
5 | B4 | do not

Biological target: pancreatic elastase (Sus scrofa, UniProt P00772)
Sequence (P00772 27-266): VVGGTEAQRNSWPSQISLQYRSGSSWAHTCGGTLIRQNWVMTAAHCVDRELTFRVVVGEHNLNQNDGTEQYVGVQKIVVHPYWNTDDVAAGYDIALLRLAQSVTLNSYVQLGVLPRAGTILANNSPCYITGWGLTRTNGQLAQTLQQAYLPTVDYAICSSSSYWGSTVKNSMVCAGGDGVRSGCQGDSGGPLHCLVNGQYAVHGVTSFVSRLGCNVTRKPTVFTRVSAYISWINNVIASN
Assay: not given
Conditions: murine AAT protein, C57BL/6J; cited from earlier work

Row | Molecule | inhibition of pancreatic elastase
6 | B1 | do not
7 | B2 | inhibit
8 | B3 | inhibit
9 | B4 | do not
